Measured values: US9872921B2, “DE-N-acetyl sialic acid antigens, antibodies thereto, and methods of use in cancer therapy” (priority 2004, dated 2018)

Legend:
[1] = HPTLC / Western blot reactivity with gangliosides extracted from SK-MEL-28 cells grown with N-trichloroacetyl mannosamine; assay type: binding, human; settings: mAbs 5 μg/ml; lanes 2 and 5
Description: SK-Mel-28 cells were grown on square 245 mm×245 mm bioassay dish (Corning) until near confluent. Growth medium (RPMI supplemented with 5 mM glutamine, 1 mM sodium pyruvate, 0.1 mM non-essential amino acids, 10% fetal bovine serum, and antibiotics) was replaced with growth medium containing trichloroacetyl mannosamine (5 mM) for 24 hours, after which cells were washed three times with PBS and lysed by hypotonic shock in distilled water (1 hour at 4° C.). This was followed by 3 cycles of freeze/thawing using ethanol on dry ice/37° C. water bath. The crude membrane fraction was pelleted by centrifugation at 4500 g for 20 minutes at 4° C. The pellet was lyophilized and the lipids extracted by stepwise washing with methanol/chloroform (1:2, 1:1, 2:1 by volume) for 30 minutes (Geilen et al 1992, Arch. Biochem. Biophys. 296, 108-114). The organic phase was dried under a steady stream of oxygen-free nitrogen gas and resuspended in 200 μl of chloroform/methanol/0.02% CaCl2 (50:40:10).
Lipids in the extract and in chemically de-N-acylated GD3 were analyzed by separation on high performance thin layer chromatography (HPTLC) and Western blot. […]

[2] = tested on: Jurkat cells (acute lymphoblastic T-cell leukemia); settings: approximately proportional to level of antigen on cell surface
normal melanocytes = experiment: Immunostaining of frozen sections of normal human skin; settings: frozen unfixed sections, 400× magnification
Description: (§1) To determine whether there is a difference in expression of SEAM 3-reactive antigen between normal melanocytes and melanoma tumor cells, immuno-staining of thin sections of each type of tissue were performed. In addition to SEAM 3, controls included the secondary antibody alone and R24, which binds to the ganglioside GD3 that is expressed in normal melanocytes and is overexpressed in some melanomas (Dippold et al. Proc Natl Acad Sci USA, 1980. 77(10): 6114-8.; Graus, et al., Brain Res, 1984. 324(1): 190-4; Houghton et al. Proc Natl Acad Sci USA, 1985. 82(4):1242-6; Panneerselvam et al. J Immunol, 1986. 136(7): 2534-41; Real et al. Cancer Res, 1985. 45(9): 4401-11; Vadhan-Raj et al. J Clin Oncol, 1988. 6(10): 1636-48; Welt t al. Clin Immunol Immunopathol, 1987. 45(2): 214-29).
(§2) The tissue sections were made from frozen samples of normal skin (HuSkinTb111 in FIG. 39) and two human melanomas (HuMel1151 and HuMel4034). To prevent the possibility of blocking de-N-acetyl antigen or extracting a lipid containing the antigen, the sections were prepared from frozen tissue and were dried onto the slides but not fixed with aldehydes or organic solvents (Chammas et al. Cancer Res, 1999. 59(6): 1337-46). […] Bound antibody was then detected using the DAKO LSAB kit following the manufacturer's directions (Thermo Fisher Scientific, Waltham, Mass.). […]

human melanomas = experiment: Immunostaining of frozen sections of human melanomas; settings: frozen unfixed sections, 400× magnification
Description: as §1, §2

SK-MEL 28 cells [3] = experiment: Flow cytometry double labeling of SEAM 3 binding and Ki-67 antigen; assay type: cell-based, human
Description: Cells were processed by the same procedures used to measure SEAM 3 binding in the absence of Triton. After unbound SEAM 3 had been washed away, cells were treated with 3% (v/v) goat serum containing 0.5% Triton to allow entry of an anti-Ki-67 antibody. After 1 h at 4° C., an anti-Ki-67 was added and incubated on-ice for 2 hours. Cells were then collected by centrifugation, washed twice with PBS, and two fluorescently labeled goat anti-mouse secondary antibodies were added, anti IgG2b-Alexa Flour 594 (Invitrogen); anti-IgM-Alexa Flour 488 (Invitrogen). After extensive washing, cells were analyzed on a Guava EasyCyte flow cytometer.

SK-MEL 28 cells [4] = experiment: Cell viability by ViaCount Reagent flow cytometry; assay type: cell-based, human
Description: Cell viability of SK-MEL 28 cells incubated in the presence of SEAM 3 or control mAbs (irrelevant isotype IgG2b or anti-GD3, R24) was determined using ViaCount Reagent (Guava Technologies, Hayward, Calif.), as per manufacturers instructions. […] The viability was analysed using a pre-set program on the Guava EasyCyte flowcytometer. The program has a preset gate for apoptosis and this was routinely incorporated into our studies.

B1: SEAM 3: murine anti-N-Pr NmB polysaccharide monoclonal antibody (IgG2b), ATCC Deposit No. HB-12170 (antibody, V domains shown)
VH: EVKLQESGGGLVQPGDSLSLSCAASGFTFTPYYMGWVRQPPGKALEWLGYIRNKANGYTTEYSASVKGRFTISRDNSQSILYLQMNALRAEDSATYYCARYARGTVDSWGQGTTLTVS
VL: DIVMTQSPLTLSVTIGQPASISCKSSQSLLHSNGKTYLNWLLQRPGQSPKLLIYLVSKLESGVPDRFSGSGSGTDFTLKISRVEAEDLGLYYCLQIIHFPHTFGAGTKLELKRA
modifications: mouse
reactivity with SK-MEL-28 lipid extract treated with NaBH4 (protecting group removed) [1]: reacts with a different slower moving de-N-acetyl ganglioside derivative
cytotoxic effect [2]: cytotoxic effect of SEAM 3 was observed
immunostaining of normal human skin (normal melanocytes): binds to an antigen in neural like structures of the dermis but is not present in melanocytes
immunostaining of two human melanomas (human melanomas): staining is weaker but nearly all of the melanoma cells are stained
cells expressing SEAM 3-reactive antigen on their surface (SK-MEL 28 cells [3]; cells in exponential growth phase, flow cytometry and fluorescence microscopy): approximately 20%
cells expressing both Ki-67 and SEAM 3-reactive antigen on their surface (SK-MEL 28 cells [3]; double labeling): approximately 11%
cells that only express SEAM 3-reactive antigen (SK-MEL 28 cells [3]; double labeling): 13%
number of viable cells compared to irrelevant IgG2b control mAb (SK-MEL 28 cells [4]; 5 μg/ml, 24 h incubation): significantly decreases the number of viable cells
number of apoptotic cells compared to IgG2b control mAb (SK-MEL 28 cells [4]; 5 μg/ml, 48 h): increases the number of apoptotic
number of dead cells compared to IgG2b control mAb (SK-MEL 28 cells [4]; 5 μg/ml, 48 h): increases
number of viable cells compared to IgG2b control mAb (SK-MEL 28 cells [4]; 5 μg/ml, 48 h): decreases the number of viable cells
cytotoxic effect (SK-MEL 28 cells [4]; SK-MEL-28 melanoma, approximately proportional to level of antigen on cell surface): cytotoxic effect of SEAM 3 was observed
